To fix the notation:
T1: 人皮肤成纤维细胞(HDF)上的IL-17RA (UniProt Q96F46 33-866, limits assumed)
T1 sequence (looked up): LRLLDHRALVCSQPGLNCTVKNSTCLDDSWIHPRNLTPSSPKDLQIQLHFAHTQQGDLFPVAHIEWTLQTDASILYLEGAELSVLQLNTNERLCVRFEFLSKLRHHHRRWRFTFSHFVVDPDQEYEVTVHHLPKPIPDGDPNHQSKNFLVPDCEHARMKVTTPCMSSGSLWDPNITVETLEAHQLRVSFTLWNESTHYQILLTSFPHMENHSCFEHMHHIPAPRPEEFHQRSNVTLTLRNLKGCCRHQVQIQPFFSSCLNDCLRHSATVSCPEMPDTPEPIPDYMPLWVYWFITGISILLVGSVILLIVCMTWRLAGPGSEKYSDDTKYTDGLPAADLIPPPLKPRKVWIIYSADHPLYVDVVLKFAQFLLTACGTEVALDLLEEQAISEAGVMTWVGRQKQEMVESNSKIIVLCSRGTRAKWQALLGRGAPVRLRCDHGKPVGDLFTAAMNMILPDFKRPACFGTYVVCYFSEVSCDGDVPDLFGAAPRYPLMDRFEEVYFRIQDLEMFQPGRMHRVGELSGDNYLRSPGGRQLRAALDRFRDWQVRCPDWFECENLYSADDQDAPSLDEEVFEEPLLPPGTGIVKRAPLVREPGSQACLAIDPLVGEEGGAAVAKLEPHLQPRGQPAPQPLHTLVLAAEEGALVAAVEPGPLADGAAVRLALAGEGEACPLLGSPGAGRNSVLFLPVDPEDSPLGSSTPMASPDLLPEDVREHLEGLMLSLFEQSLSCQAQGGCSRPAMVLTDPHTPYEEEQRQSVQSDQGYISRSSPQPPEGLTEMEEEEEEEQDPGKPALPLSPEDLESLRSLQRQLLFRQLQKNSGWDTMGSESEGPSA

B1: 上市产品Brodalumab的全抗体 (antibody, V domains shown)
VH: QVQLVQSGAEVKKPGASVKVSCKASGYTFTRYGISWVRQAPGQGLEWMGWISTYSGNTNYAQKLQGRVTMTTDTSTSTAYMELRSLRSDDTAVYYCARRQLYFDYWGQGTLVTVSS
VL: EIVMTQSPATLSVSPGERATLSCRASQSVSSNLAWFQQKPGQAPRPLIYDASTRATGVPARFSGSGSGTDFTLTISSLQSEDFAVYYCQQYDNWPLTFGGGTKVEIK
B2: mAb-9全抗体 (antibody, human IgG1, kappa, V domains shown)
VH: B1 VH with F29W, R31S, Q62K, L64F, Q65L, Q100V, Y102R, F103L
VL: DIQMTQSPSSLSASVGDRVTITCRASQSVHTGLNWYQQKPGKAPKLLIYGASNLQSGVPSRFSGSGSGTDFTLTISSLQPEDFATYYCQQFEHNPLTFGQGIKVEIKR
B3: mAb-6全抗体 (antibody, human IgG1, kappa, V domains shown)
VH: B1 VH with T28S, Q62K, K63Q, L64F, Q65K, Q100V, Y102R, F103L
VL: EIVMTQSPATLSVSPGERATLSCRASQDISISLGWFQQKPGQAPRPLIYGWNTRATGVPARFSGSGSGTDFTLTISSLQSEDFAVYYCQQYSDPFLTFGGGTKVEIKR
B4: mAb-4全抗体 (antibody, human IgG1, kappa, V domains shown)
VH: B1 VH with T28A, F29Y, T30S, R31N, Q62K, L64F, Q65I, Q100V, Y102R, F103L
VL: DIQMTQSPSSLSASVGDRVTITCRASQDIDSSLNWYQQKPGKAPKLLIYAASNRESGVPSRFSGSGSGTDFTLTISSLQPEDFATYYCQQWANMPGTFGQGTKVEIKR
B5: mAb-11全抗体 (antibody, human IgG1, kappa, V domains shown)
VH: B1 VH with T28A, F29W, Q62K, L64F, Q65K, Q100V, Y102R, F103L
VL: B2 VL
B6: mAb-3全抗体 (antibody, human IgG1, kappa, V domains shown)
VH: B1 VH with T28A, T30S, Y32F, Q62K, K63H, Q65L, Q100F, Y102K
VL: B4 VL
B7: mAb-7全抗体 (antibody, human IgG1, kappa, V domains shown)
VH: B1 VH with R31S, Q62K, K63N, Q100V, Y102R, F103L
VL: B3 VL
B8: mAb-5全抗体 (antibody, human IgG1, kappa, V domains shown)
VH: B1 VH with Y27F, T28A, Q62D, K63Q, L64F, Q65I, Q100V, Y102R, F103L
VL: B4 VL
B9: mAb-8全抗体 (antibody, human IgG1, kappa, V domains shown)
VH: B1 VH with T28G, T30A, R31S, Y32R, Q62K, L64F, Q65E, Q100V, Y102R, F103L
VL: B2 VL
B10: mAb-2全抗体 (antibody, human IgG1, kappa, V domains shown)
VH: B1 VH with T28A, F29W, Q62K, L64F, Q65K, Q100V, Y102R, F103L
VL: B4 VL
B11: mAb-10全抗体 (antibody, human IgG1, kappa, V domains shown)
VH: B1 VH with T28S, T30S, R31S, Q62K, L64F, Q65K, Q100V, Y102R, F103L
VL: B2 VL
B12: mAb-1全抗体 (antibody, human IgG1, kappa, V domains shown)
VH: B1 VH with T28S, F29Y, T30S, R31N, A61S, Q62K, Q65K, Q100V, Y102R, F103L
VL: B4 VL

Positions count from the first letter of the chain named.

In the experiment the target is T1, 人皮肤成纤维细胞(HDF)上的IL-17RA. Briefly: cell-based or functional assay.
Regarding B1, the “抑制HDF细胞产生IL-6 IC50(ng/ml)” value was determined as 117 ng/mL.

As for B2, the “抑制HDF细胞产生IL-6 IC50(ng/ml)” value was 24.8 ng/mL.

Turning to B3, the “抑制HDF细胞产生IL-6 IC50(ng/ml)” value was 33.4 ng/mL.

B4: the “抑制HDF细胞产生IL-6 IC50(ng/ml)” value worked out at 35.8 ng/mL.

Take B5: the “抑制HDF细胞产生IL-6 IC50(ng/ml)” value was found to be 60.8 ng/mL.

In the case of B6, the “抑制HDF细胞产生IL-6 IC50(ng/ml)” value was 33.4 ng/mL.

Regarding B7, the “抑制HDF细胞产生IL-6 IC50(ng/ml)” value stood at 29.7 ng/mL.

On to B8, for which the “抑制HDF细胞产生IL-6 IC50(ng/ml)” value turned out to be 22.9 ng/mL.

For the molecule B9, the “抑制HDF细胞产生IL-6 IC50(ng/ml)” value is 13.5 ng/mL.

For B10, the “抑制HDF细胞产生IL-6 IC50(ng/ml)” value amounted to 22.7 ng/mL.

As to B11, the “抑制HDF细胞产生IL-6 IC50(ng/ml)” value was 36.4 ng/mL.

B12: the “抑制HDF细胞产生IL-6 IC50(ng/ml)” value came out at 28.4 ng/mL.

The values above are taken from patent CN111840217A (BEIJING EASTERN BIOTECH CO LTD, dated 2020).
